Patent US6607709 (CURATORS OF THE UNIVERSITY OF MISSOURI, dated 2003)
Positions of bridges follow the written chain, without caps; N, C: chain ends. Non-standard residues stand in square brackets, D forms with d. Re(V)O = rhenium(V) oxo core coordinated by cysteine thiolates and amide nitrogens

Key:
[1] = target: T1, α-MSH receptor on B16-F1 murine melanoma cells (murine, UniProt Q01727 1-315); test: competitive receptor binding on B16-F1 murine melanoma cells
T1 construct: whole, on cells; also called α-melanotropin (α-MSH) receptors; melanotropin receptors
T1 sequence (Q01727 whole entry): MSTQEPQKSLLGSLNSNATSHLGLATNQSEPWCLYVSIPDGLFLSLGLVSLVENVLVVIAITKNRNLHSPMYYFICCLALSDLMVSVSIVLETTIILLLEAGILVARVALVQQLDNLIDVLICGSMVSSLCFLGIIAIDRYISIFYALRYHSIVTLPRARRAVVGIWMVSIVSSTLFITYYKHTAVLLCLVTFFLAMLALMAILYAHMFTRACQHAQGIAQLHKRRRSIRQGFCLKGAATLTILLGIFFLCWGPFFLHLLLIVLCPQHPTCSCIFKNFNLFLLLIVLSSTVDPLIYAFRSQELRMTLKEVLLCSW
Method: (§1) Quantitative receptor binding assays were carried out following a previously described method (Siegrist W., 1988; Sahm, U. G., 1994). […] The cells were rinsed with PBS, lysed with 1 M NaOH and counted in a 1275 minigamma gamma counter from LKB Wallac.
The ^99mTc- and ^188Re-labeled analogs of ReCCMSH were virtually inert to substitution in 10 mM Cys competition assays, while the ^99mTc- and ^188Re-labeled analogs of ReMSH were readily exchanged under the same assay conditions (Table 2). This increased stability of ReCCMSH probably resulted from the presence of an additional sulfur donor atom and from decreased backbone strain in the molecule due to the increased ring size. […] The ability of the ReCCMSH analog to stimulate melanin production was almost identical to APOMSH (Table 3).

[2] = target: T1, α-MSH receptor on B16-F1 murine …; test: cell-based or functional assay
[3] = target: T1, α-MSH receptor on B16-F1 murine …; test: competitive receptor binding on B16-F1 murine melanoma cells, displacement of ^125I-[Nle4, D-Phe7]-α-MSH, 4° C., 8 hours
Method: as §1
The bioactivities of APOMSH and the ReMSH complex were assayed by measuring stimulation of melanin production by B16-F1 murine melanoma cells. The $EC50$ values for melanin synthesis by APOMSH and ReMSH were 2.6 ×10^-11 and 5.4 ×10^-10, respectively. […] Receptor binding assays were performed with APOMSH and ReMSH on B16-F1 murine melanoma cells.

[4] = target: T1, α-MSH receptor on B16-F1 murine …; test: cell-based or functional assay; remark: listed apart in the source

Row | fold higher receptor binding affinity than ReMSH [1] | EC50 (M), melanin production by B16-F1 murine melanoma cells [2] | Ki [3] | fold decrease in receptor binding affinity compared to APOMSH [1] | fold decrease in the ability to stimulate melanin production compared to APOMSH [4] | Binder
1 | ~25 fold | 3.5e-11 M | 2900 pM |  |  | Ac-CCEH[dF]RWCKPV-NH2 (bridge 1-2-8 via Re(V)O; not fully specified; printed as NAc-Cys-Cys-Glu-His-D-Phe-Arg-Trp-Cys-Lys-Pro-Val-NH2; also: Re(V)O complex via thiolates of Cys3, Cys4, Cys10 and amide N of Cys4, Nonradioactive rhenium complex of the APOMSH analog with an additional N-terminal Cys (Cys3); also called ReCCMSH analog) [ReCCMSH]
2 |  | 5.4e-10 M | 66000 pM | ~100 fold | ~20 fold | CEHFRWCKPV (not fully specified; N-terminal acetyl; D-Phe at position 7 (α-MSH numbering); C-terminal amide; cyclized by a Re(V)O core coordinated by the thiolate sulfurs of Cys4 and Cys10 and the amide nitrogens of Trp9 and Cys10, Nonradioactive rhenium complex of APOMSH; also called rhenium α MSH analog ReMSH; ReMSH complex) [ReMSH]
3 |  | 2.6e-11 M | 680 pM |  |  | Ac-CEH[dF]RWCKPV-NH2 (disulfide 1-7; SMILES CC(=O)N[C@H]1CSSC[C@@H](C(=O)N[C@@H](CCCCN)C(=O)N2CCC[C@H]2C(=O)N[C@H](C(N)=O)C(C)C)NC(=O)[C@H](Cc2c[nH]c3ccccc23)NC(=O)[C@H](CCCNC(=N)N)NC(=O)[C@@H](Cc2ccccc2)NC(=O)[C@H](Cc2c[nH]cn2)NC(=O)[C@H](CCC(=O)O)NC1=O, Synthetic cyclic α-MSH analog without metal; starting peptide for ReMSH; also called metal-free peptide) [Cys^4,10, D-Phe^7-α-MSH4-13 (APOMSH)]
